Laboratory results published in paper PMC11328874 (2024).

Molecular target: T1, FLAG-Eya3 (human), wild type, Q99504
T1 chain: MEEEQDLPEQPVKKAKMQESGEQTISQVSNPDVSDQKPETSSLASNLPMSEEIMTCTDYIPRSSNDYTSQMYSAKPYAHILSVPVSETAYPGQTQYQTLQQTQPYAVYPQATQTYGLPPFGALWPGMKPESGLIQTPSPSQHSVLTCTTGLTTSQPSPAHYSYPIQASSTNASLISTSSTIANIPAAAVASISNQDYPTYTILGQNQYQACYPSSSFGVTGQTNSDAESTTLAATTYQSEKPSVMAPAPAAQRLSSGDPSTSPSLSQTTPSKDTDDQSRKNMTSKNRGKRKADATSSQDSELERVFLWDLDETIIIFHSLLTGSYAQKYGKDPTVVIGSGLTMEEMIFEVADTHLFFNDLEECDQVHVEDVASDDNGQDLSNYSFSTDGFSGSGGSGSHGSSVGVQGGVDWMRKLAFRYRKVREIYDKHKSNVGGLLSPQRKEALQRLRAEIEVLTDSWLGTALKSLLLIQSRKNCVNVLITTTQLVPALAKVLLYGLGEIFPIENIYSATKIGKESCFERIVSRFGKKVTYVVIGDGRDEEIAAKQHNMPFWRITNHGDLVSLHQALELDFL
Experiment: FLAG co-IP followed by Western blot, band quantification
Conditions: chain shown with the change; cotransfected HEK cells; three biological replicates; parent: est. 1.0; read off a plot

ratio to parent: 0.58
B1: HA-tagged B55α (HA-B55α), wild type, P63151 F84-L90/GG (protein)
chain: MAGAGGGNDIQWCFSQVKGAVDDDVAEADIISTVEFNHSGELLATGDKGGRVVIFQQEQENKIQSHSRGEYNVYSTFQSHEPEGGEIEEKINKIRWLPQKNAAQFLLSTNDKTIKLWKISERDKRPEGYNLKEEDGRYRDPTTVTTLRVPVFRPMDLMVEASPRRIFANAHTYHINSISINSDYETYLSADDLRINLWHLEITDRSFNIVDIKPANMEELTEVITAAEFHPNSCNTFVYSSSKGTIRLCDMRASALCDRHSKLFEEPEDPSNRSFFSEIISSISDVKFSHSGRYMMTRDYLSVKIWDLNMENRPVETYQVHEYLRSKLCSLYENDCIFDKFECCWNGSDSVVMTGSYNNFFRMFDRNTKRDITLEASRENNKPRTVLKPRKVCASGKRKKDEISVDSLDFNKKILHTAWHPKENIIAVATTNNLYIFQDKVN
